PMC7511888, “Dependence of PINK1 accumulation on mitochondrial redox system” (Aging Cell, 2020)

How the values were obtained:
[1] = biological target: CHCHD4 (human (endogenous in HEK293)) (UniProt Q8N4Q1); test: co-IP; HEK293 cells transfected with PINK1-EGFP or its mutants for 24 hr; lysed; immunoprecipitation of endogenous CHCHD4 with anti-CHCHD4 antibody; immunoblot; level in the precipitant compared to input
CHCHD4 = biological target: T1, CHCHD4 (human (endogenous in HEK293), UniProt Q8N4Q1 1-142); test: as above; details: partners not purified
T1 construct: CHCHD4, mammalian homologue of yeast Mia40; endogenous protein of HEK293 cells, precipitated with polyclonal anti-CHCHD4 antibodies (Proteintech); source: endogenous, HEK293 lysate
T1 sequence (looked up): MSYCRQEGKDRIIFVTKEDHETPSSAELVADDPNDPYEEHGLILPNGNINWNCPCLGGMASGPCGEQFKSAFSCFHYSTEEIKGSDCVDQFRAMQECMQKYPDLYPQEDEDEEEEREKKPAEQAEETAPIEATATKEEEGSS

Molecule	relative level in the precipitants as compared to input [1]	relative level in the precipitants as compared to input (CHCHD4)
PINK1‐EGFP ∆166‐171 (AA166‐171 deletion) (from UniProt Q9BXM7 78-581) (natural protein)	1.01	
PINK1‐EGFP A168P (natural protein, UniProt Q9BXM7 78-581, looked up, PINK1 as in PINK1-EGFP with the PD-associated mutation A168P; also called PINK1 A168P; PD‐associated mutant; source: HEK293, transfected, in lysate; not shown: EGFP (from the vector pEGFP-N3), C-terminal, kept) AARLQRQFVVRAWGCAGPCGRAVFLAFGLGLGLIEEKQAESRRAVSACQEIQAIFTQKSKPGPDPLDTRRLQGFRLEEYLIGQSIGKGCSPAVYEATMPTLPQNLEVTKSTGLLPGRGPGTSAPGEGQERAPGAPAFPLAIKMMWNISAGSSSEAILNTMSQELVPASRVALAGEYGAVTYRKSKRGPKQLAPHPNIIRVLRAFTSSVPLLPGALVDYPDVLPSRLHPEGLGHGRTLFLVMKNYPCTLRQYLCVNTPSPRLAAMMLLQLLEGVDHLVQQGIAHRDLKSDNILVELDPDGCPWLVIADFGCCLADESIGLQLPFSSWYVDRGGNGCLMAPEVSTARPGPRAVIDYSKADAWAVGAIAYEIFGLVNPFYGQGKAHLESRSYQEAQLPALPESVPPDVRQLVRALLQREASKRPSARVAANVLHLSLWGEHILALKNLKLDKMVGWLLQQSAATLLANRLTEKCCVETKMKMLFLANLECETLCQAALLLCSWRAAL		0.2
PINK1‐EGFP V170G (natural protein, UniProt Q9BXM7 78-581, looked up, PINK1 as in PINK1-EGFP with the PD-associated mutation V170G; also called PINK1 V170G; PD‐associated mutant; source: HEK293, transfected, in lysate; not shown: EGFP (from the vector pEGFP-N3), C-terminal, kept) AARLQRQFVVRAWGCAGPCGRAVFLAFGLGLGLIEEKQAESRRAVSACQEIQAIFTQKSKPGPDPLDTRRLQGFRLEEYLIGQSIGKGCSAAGYEATMPTLPQNLEVTKSTGLLPGRGPGTSAPGEGQERAPGAPAFPLAIKMMWNISAGSSSEAILNTMSQELVPASRVALAGEYGAVTYRKSKRGPKQLAPHPNIIRVLRAFTSSVPLLPGALVDYPDVLPSRLHPEGLGHGRTLFLVMKNYPCTLRQYLCVNTPSPRLAAMMLLQLLEGVDHLVQQGIAHRDLKSDNILVELDPDGCPWLVIADFGCCLADESIGLQLPFSSWYVDRGGNGCLMAPEVSTARPGPRAVIDYSKADAWAVGAIAYEIFGLVNPFYGQGKAHLESRSYQEAQLPALPESVPPDVRQLVRALLQREASKRPSARVAANVLHLSLWGEHILALKNLKLDKMVGWLLQQSAATLLANRLTEKCCVETKMKMLFLANLECETLCQAALLLCSWRAAL		0.39
PINK1‐EGFP Y171S (natural protein, UniProt Q9BXM7 78-581, looked up, PINK1 as in PINK1-EGFP with Y171S; also called Y171S point mutant; source: HEK293, transfected, in lysate; not shown: EGFP (from the vector pEGFP-N3), C-terminal, kept) AARLQRQFVVRAWGCAGPCGRAVFLAFGLGLGLIEEKQAESRRAVSACQEIQAIFTQKSKPGPDPLDTRRLQGFRLEEYLIGQSIGKGCSAAVSEATMPTLPQNLEVTKSTGLLPGRGPGTSAPGEGQERAPGAPAFPLAIKMMWNISAGSSSEAILNTMSQELVPASRVALAGEYGAVTYRKSKRGPKQLAPHPNIIRVLRAFTSSVPLLPGALVDYPDVLPSRLHPEGLGHGRTLFLVMKNYPCTLRQYLCVNTPSPRLAAMMLLQLLEGVDHLVQQGIAHRDLKSDNILVELDPDGCPWLVIADFGCCLADESIGLQLPFSSWYVDRGGNGCLMAPEVSTARPGPRAVIDYSKADAWAVGAIAYEIFGLVNPFYGQGKAHLESRSYQEAQLPALPESVPPDVRQLVRALLQREASKRPSARVAANVLHLSLWGEHILALKNLKLDKMVGWLLQQSAATLLANRLTEKCCVETKMKMLFLANLECETLCQAALLLCSWRAAL		3.31
